For data set [1], the system named is HeLa Kyoto. The data set is described as follows: solubility in G1/S (NP-40 vs SDS abundance) (log2 ratio); higher = more soluble. The following applies: cell cycle stage: G1/S.
Data set [2] relates to HeLa Kyoto. The data set is described as follows: melting temperature (median over replicates), in situ; higher = more thermally stable.
For data set [3], the system named is HeLa Kyoto. Description: solubility change mitosis vs G1/S (difference of NP-40 vs SDS log2 ratios) (log2 ratio difference); higher = more soluble in mitosis.
Data set [4] relates to HeLa Kyoto. Description: thermal stability score vs G1/S (z-score of summed log2 fold changes over temperatures); higher = more thermally stable than in G1/S.
The mark [5] stands for this setting: cell cycle stage: early G1 (4.5 h after nocodazole release).
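Wherever melting temperature (median over replicates), in situ is given: HeLa Kyoto cells synchronized by double thymidine or nocodazole block, proteins quantified by TMT10plex mass spectrometry, three independent biological replicates.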
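Wherever solubility change mitosis vs G1/S (difference of NP-40 vs SDS log2 ratios) is given: synchronized HeLa Kyoto cells (double thymidine block for G1/S, nocodazole release for mitosis), protein amounts in NP-40 versus SDS lysates quantified by mass spectrometry, three biological replicates.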
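Wherever solubility in G1/S (NP-40 vs SDS abundance) is given: HeLa Kyoto cells arrested at G1/S by double thymidine block, proteins quantified by TMT10plex mass spectrometry in mild NP-40 versus SDS extracts, three biological replicates.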
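Wherever thermal stability score vs G1/S (z-score of summed log2 fold changes over temperatures) is given: synchronized HeLa Kyoto cells, proteins quantified by TMT10plex mass spectrometry, three biological replicates, mitosis taken 0.5 h after nocodazole release, G1/S directly after double thymidine block.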

As for “MADKQISLPAKLINGGIAGLIGVTCVFPIDLAKTRLQNQQNGQRVYTSMSDCLIKTVRSEGYFGMYRGAAVNLTLVTPEKAIKLAANDFFRHQLSKDGQKLTLLKEMLAGCGAGTCQVIVTTPMEMLKIQLQDAGRIAAQRKILAAQGQLSAQGGAQPSVEAPAAPRPTATQLTRDLLRSRGIAGLYKGLGATLLRDVPFSVVYFPLFANLNQLGRPASEEKSPFYVSFLAGCVAGSAAAVAVNPCDVVKTRLQSLQRGVNEDTYSGILDCARKILRHEGPSAFLKGAYCRALVIAPLFGIAQVVYFLGIAESLLGLLQDPQA [SLC25A22]”, the “solubility in G1/S (log2)” value with HeLa Kyoto [1] was found to be 0.299. The figures for the melting temperature with HeLa Kyoto [2] (cell cycle stage: G1/S) and in the data set with HeLa Kyoto [2] (cell cycle stage: mitosis) were 56.1 °C and 55.4 °C, respectively. Moreover, in the data set with HeLa Kyoto [3], the “solubility change mitosis (log2)” value was -0.111. Further, the thermal stability score in the data set with HeLa Kyoto [4] (setting [5]) was 0.207; in the data set on HeLa Kyoto [4] (cell cycle stage: mitosis), -1.95.

For the sequence “MADKTPGGSQKASSKTRSSDVHSSGSSDAHMDASGPSDSDMPSRTRPKSPRKHNYRNESARESLCDSPHQNLSRPLLENKLKAFSIGKMSTAKRTLSKKEQEELKKKEDEKAAAEIYEEFLAAFEGSDGNKVKTFVRGGVVNAAKEEHETDEKRGKIYKPSSRFADQKNPPNQSSNERPPSLLVIETKKPPLKKGEKEKKKSNLELFKEELKQIQEERDERHKTKGRLSRFEPPQSDSDGQRRSMDAPSRRNRSSGVLDDYAPGSHDVGDPSTTNLYLGNINPQMNEEMLCQEFGRFGPLASVKIMWPRTDEERARERNCGFVAFMNRRDAERALKNLNGKMIMSFEMKLGWGKAVPIPPHPIYIPPSMMEHTLPPPPSGLPFNAQPRERLKNPNAPMLPPPKNKEDFEKTLSQAIVKVVIPTERNLLALIHRMIEFVVREGPMFEAMIMNREINNPMFRFLFENQTPAHVYYRWKLYSILQGDSPTKWRTEDFRMFKNGSFWRPPPLNPYLHGMSEEQETEAFVEEPSKKGALKEEQRDKLEEILRGLTPRKNDIGDAMVFCLNNAEAAEEIVDCITESLSILKTPLPKKIARLYLVSDVLYNSSAKVANASYYRKFFETKLCQIFSDLNATYRTIQGHLQSENFKQRVMTCFRAWEDWAIYPEPFLIKLQNIFLGLVNIIEEKETEDVPDDLDGAPIEEELDGAPLEDVDGIPIDATPIDDLDGVPIKSLDDDLDGVPLDATEDSKKNEPIFKVAPSKWEAVDESELEAQAVTTSKWELFDQHEESEEEENQNQEEESEDEEDTQSSKSEEHHLYSNPIKEEMTESKFSKYSEMSEEKRAKLREIELKVMKFQDELESGKRPKKPGQSFQEQVEHYRDKLLQREKEKELERERERDKKDKEKLESRSKDKKEKDECTPTRKERKRRHSTSPSPSRSSSGRRVKSPSPKSERSERSERSHKESSRSRSSHKDSPRDVSKKAKRSPSGSRTPKRSRRSRSRSPKKSGKKSRSQSRSPHRSHKKSKKNKH [U2SURP]”, the “solubility in G1/S (log2)” value in the data set on HeLa Kyoto [1] was -0.673. Moreover, the melting temperature in the data set with HeLa Kyoto [2] (cell cycle stage: G1/S) is 47.9 °C; in the data set with HeLa Kyoto [2] (cell cycle stage: mitosis), 49.5 °C. In addition, in the data set with HeLa Kyoto [3], the “solubility change mitosis (log2)” value worked out at 0.526. Besides, the thermal stability score with HeLa Kyoto [4] (setting [5]) is 1.49; in the data set on HeLa Kyoto [4] (cell cycle stage: mitosis), 6.77.

For the sequence “MADNLPTEFDVVIIGTGLPESILAAACSRSGQRVLHIDSRSYYGGNWASFSFSGLLSWLKEYQQNNDIGEESTVVWQDLIHETEEAITLRKKDETIQHTEAFCYASQDMEDNVEEIGALQKNPSLGVSNTFTEVLDSALPEESQLSYFNSDEMPAKHTQKSDTEISLEVTDVEESVEKEKYCGDKTCMHTVSDKDGDKDESKSTVEDKADEPIRNRITYSQIVKEGRRFNIDLVSKLLYSQGLLIDLLIKSDVSRYVEFKNVTRILAFREGKVEQVPCSRADVFNSKELTMVEKRMLMKFLTFCLEYEQHPDEYQAFRQCSFSEYLKTKKLTPNLQHFVLHSIAMTSESSCTTIDGLNATKNFLQCLGRFGNTPFLFPLYGQGEIPQGFCRMCAVFGGIYCLRHKVQCFVVDKESGRCKAIIDHFGQRINAKYFIVEDSYLSEETCSNVQYKQISRAVLITDQSILKTDLDQQTSILIVPPAEPGACAVRVTELCSSTMTCMKDTYLVHLTCSSSKTAREDLESVVKKLFTPYTETEINEEELTKPRLLWALYFNMRDSSGISRSSYNGLPSNVYVCSGPDCGLGNEHAVKQAETLFQEIFPTEEFCPPPPNPEDIIFDGDDKQPEAPGTNNVVMAKLESSEESKNLESPEKHLQN [CHML]”, in the data set on HeLa Kyoto [1], the “solubility in G1/S (log2)” value is -0.076. For the same sequence, the melting temperature came to 54 °C in the data set on HeLa Kyoto [2] (cell cycle stage: G1/S) and 53.7 °C in the data set with HeLa Kyoto [2] (cell cycle stage: mitosis). Also, the “solubility change mitosis (log2)” value in the data set on HeLa Kyoto [3] was -0.178. Also, the thermal stability score in the data set with HeLa Kyoto [4] (setting [5]) was -0.83; in the data set on HeLa Kyoto [4] (cell cycle stage: mitosis), -1.67.

Take “MADPAAPTPAAPAPAQAPAPAPEAVPAPAAAPVPAPAPASDSASGPSSDSGPEAGSQRLLFSHDLVSGRYRGSVHFGLVRLIHGEDSDSEGEEEGRGSSGCSEAGGAGHEEGRASPLRRGYVRVQWYPEGVKQHVKETKLKLEDRSVVPRDVVRHMRSTDSQCGTVIDVNIDCAVKLIGTNCIIYPVNSKDLQHIWPFMYGDYIAYDCWLGKVYDLKNQIILKLSNGARCSMNTEDGAKLYDVCPHVSDSGLFFDDSYGFYPGQVLIGPAKIFSSVQWLSGVKPVLSTKSKFRVVVEEVQVVELKVTWITKSFCPGGTDSVSPPPSVITQENLGRVKRLGCFDHAQRQLGERCLYVFPAKVEPAKIAWECPEKNCAQGEGSMAKKVKRLLKKQVVRIMSCSPDTQCSRDHSMEDPDKKGESKTKSEAESASPEETPDGSASPVEMQDEGAEEPHEAGEQLPPFLLKEGRDDRLHSAEQDADDEAADDTDDTSSVTSSASSTTSSQSGSGTSRKKSIPLSIKNLKRKHKRKKNKITRDFKPGDRVAVEVVTTMTSADVMWQDGSVECNIRSNDLFPVHHLDNNEFCPGDFVVDKRVQSCPDPAVYGVVQSGDHIGRTCMVKWFKLRPSGDDVELIGEEEDVSVYDIADHPDFRFRTTDIVIRIGNTEDGAPHKEDEPSVGQVARVDVSSKVEVVWADNSKTIILPQHLYNIESEIEESDYDSVEGSTSGASSDEWEDDSDSWETDNGLVEDEHPKIEEPPIPPLEQPVAPEDKGVVISEEAATAAVQGAVAMAAPMAGLMEKAGKDGPPKSFRELKEAIKILESLKNMTVEQLLTGSPTSPTVEPEKPTREKKFLDDIKKLQENLKKTLDNVAIVEEEKMEAVPDVERKEDKPEGQSPVKAEWPSETPVLCQQCGGKPGVTFTSAKGEVFSVLEFAPSNHSFKKIEFQPPEAKKFFSTVRKEMALLATSLPEGIMVKTFEDRMDLFSALIKGPTRTPYEDGLYLFDIQLPNIYPAVPPHFCYLSQCSGRLNPNLYDNGKVCVSLLGTWIGKGTERWTSKSSLLQVLISIQGLILVNEPYYNEAGFDSDRGLQEGYENSRCYNEMALIRVVQSMTQLVRRPPEVFEQEIRQHFSTGGWRLVNRIESWLETHALLEKAQALPNGVPKASSSPEPPAVAELSDSGQQEPEDGGPAPGEASQGSDSEGGAQGLASASRDHTDQTSETAPDASVPPSVKPKKRRKSYRSFLPEKSGYPDIGFPLFPLSKGFIKSIRGVLTQFRAALLEAGMPECTEDK [UBE2O]”: the “solubility in G1/S (log2)” value with HeLa Kyoto [1] is -0.0555. For the same sequence, the melting temperature in the data set on HeLa Kyoto [2] (cell cycle stage: G1/S) stood at 51.7 °C; in the data set on HeLa Kyoto [2] (cell cycle stage: mitosis) it was 51.1 °C. Besides, the “solubility change mitosis (log2)” value in the data set on HeLa Kyoto [3] is -0.0785. Further, the thermal stability score is -1.41 in the data set with HeLa Kyoto [4] (setting [5]) and -1.46 with HeLa Kyoto [4] (cell cycle stage: mitosis).
